Assay results as given in the supplement of paper PMC12764529.
± gives the half width of the 95% confidence interval.

Experiments:
[1] = folding stability dG unfold (combined trypsin and chymotrypsin); higher = more stable
Summary of the method: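 Sequencing followed digestion of designed mini-proteins with trypsin and chymotrypsin, each at 11 concentrations in threefold dilutions together with a no-protease condition. The mini-proteins were under 80 residues, had no cysteine, sat in a PA-tagged cDNA display construct, and were kept only if AlphaFold2 dimer inter-PAE was above 15. From the counts, Bayesian fitting gave K50, and unfolding free energy was derived against a sequence-predicted unfolded-state K50 and a shared folded-state K50, per protease or combined.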

[2] = folding stability dG unfold from chymotrypsin proteolysis; higher = more stable
Procedure: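 Folding stability of de novo designed mini-proteins (<80 aa, no Cys; designed by TrROS, TrMRF, ProteinMPNN and the joint model) was measured by cDNA display proteolysis with trypsin and chymotrypsin. Each protease was used at 11 concentrations in a threefold dilution series plus a no-protease condition. K50 was inferred by Bayesian fitting of sequencing counts, and dG unfold was derived against a sequence-predicted unfolded-state K50 (Tsuboyama et al. method). Sequences shown include variable-length N-terminal GS-type padding (SAGGSAGG...) inside a display construct carrying a PA tag. Rows were kept only if the AF2 dimer inter-PAE was >15, to exclude likely homo-oligomers.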

| Sequence | folding stability dG unfold [1] | folding stability dG unfold [2] |
| --- | --- | --- |
| SAGGSAGGSAGGPALAEELARKLPPGARVRVRVERDADGNLTITVEVEPAPPVEVVEEESAGGSAGGSAGGS [r10_385_TrROS_Hall] | -0.06 ± 0.23 kcal/mol | 0.366 ± 0.044 kcal/mol |
| SAGGSAGGSAGGPKVTVFDDHPKKVVLVEFPDKPILAVYDPVTKEVVLLNPDTDELLPLSAGGSAGGSAGGS [r10_434_TrMRF] | -0.889 ± 0.47 kcal/mol | -0.551 ± 0.22 kcal/mol |
| SAGGSAGGSAGGPLLALFDPVPGRVVVVGLRPLPEDSYELDPYVLELDPTTGEAKVRKASAGGSAGGSAGGS [r10_1041_TrMRF] | -0.852 ± 0.59 kcal/mol | -0.547 ± 0.42 kcal/mol |
| SAGGSAGGSAGGPVVTETPTTSVVYDPAKGTVTYVTPTVVTFPDGTTTTTVASTTVPLPASAGGSAGGSAGG [r11_308_JUSTAS] | 0.0838 ± 0.2 kcal/mol | 0.531 ± 0.15 kcal/mol |
| SAGGSAGGSAGGPWKIKEIETVPEGGKERMTIKIEDDNGKPKKPVHMPPDDLDNLPPDLISAGGSAGGSAGG [r7_263_TrROS] | < -1 kcal/mol | -0.605 ± 0.24 kcal/mol |
| SAGGSAGGSAGGRTYRLTLTRPDGRPLTFEVPTDTAPEHVELLKSLFPDEEIEADISDVESAGGSAGGSAGG [r7_349_TrMRF] | -0.652 ± 0.46 kcal/mol | 0.491 ± 0.22 kcal/mol |
| SAGGSAGGSAGGSAAEFVAAHPDVEARPVEEGPGSVLVALRPPGGPELLVRVEGAAVTLESAGGSAGGSAGG [r7_26_JUSTAS] | < -1 kcal/mol | -0.459 ± 0.34 kcal/mol |
| SAGGSAGGSAGGSAPYALVEVLPGGVVVVAYPDGSRRLVEVERDPSSDLWRVLREEDLPSAGGSAGGSAGGS [r4_247_JUSTAS] | 0.278 ± 0.068 kcal/mol | 0.688 ± 0.1 kcal/mol |
| SAGGSAGGSAGGSEEKPLVIPIPAHPDIPAEVVRKAVEPLTGVPIEAVLGDEDTLLVVGSAGGSAGGSAGGS [r4_469_TrMRF] | 0.187 ± 0.077 kcal/mol | 0.661 ± 0.022 kcal/mol |
| SAGGSAGGSAGGSFTLTTPGRTETVPAGSEVYFGNGIKLHPDLPLADIPPELLTPIGTRPSAGGSAGGSAGG [r17_511_TrMRF] | -0.229 ± 0.24 kcal/mol | 0.48 ± 0.27 kcal/mol |
| SAGGSAGGSAGGSGGVTVSQYEGGKATRTVTSFDPVNNSTSTTTTTTFTIPPDEPVTVSSAGGSAGGSAGGS [r10_1153_JUSTAS] | -0.371 ± 0.29 kcal/mol | 0.236 ± 0.2 kcal/mol |
| SAGGSAGGSAGGSGPEELAAAARAAHPELGAPVRVEVTYTPEAGEFPVRVFLPEDGAALSAGGSAGGSAGGS [r4_312_JUSTAS] | < -1 kcal/mol | -0.335 ± 0.14 kcal/mol |
| SAGGSAGGSAGGSGRVEIELEFKLENGFYVRIKAEIEFEEDGKIRIKVEIELLPEELEESAGGSAGGSAGGS [r4_297_TrROS_Hall] | 3.89 ± 0.41 kcal/mol | 3.67 ± 0.34 kcal/mol |
| SAGGSAGGSAGGSHIQFDPEGRWKIRNRDNNNTREFPADDLPKLPPDFDIPKGARIEPYSAGGSAGGSAGGS [r4_91_TrROS] | -0.518 ± 0.19 kcal/mol | -0.134 ± 0.25 kcal/mol |
| SAGGSAGGSAGGSHPVKITEITEFNPGDNRMRIDIKHPNGGKKEIVVPGMPVEEILNAISAGGSAGGSAGGS [r4_357_TrROS] | -0.635 ± 0.21 kcal/mol | 0.0992 ± 0.031 kcal/mol |
| SAGGSAGGSAGGSKIIRIKAKPNEKKEIKIDGKWYKLYADKDNPDRVYIERPDGTIDPASAGGSAGGSAGGS [r4_488_TrMRF] | 0.26 ± 0.13 kcal/mol | 0.685 ± 0.14 kcal/mol |
| SAGGSAGGSAGGSKRIRITIPENYRVRGPNGKQFSWNDIEELKASGFKPIEIEPLPPGASAGGSAGGSAGGS [r4_47_TrROS] | < -1 kcal/mol | -1.06 ± 0.4 kcal/mol |
| SAGGSAGGSAGGSLAPALAAAIAPLLPKDGTFVFVAEPVGDRLVIVTETRPLREDEERGSAGGSAGGSAGGS [r4_350_TrMRF] | -0.707 ± 0.25 kcal/mol | 0.496 ± 0.047 kcal/mol |
| SAGGSAGGSAGGSLEEKAEAAYKKNPTTVPVELPLPGGVPATLTVTRTSPDSLDITRTLSAGGSAGGSAGGS [r10_395_JUSTAS] | < -1 kcal/mol | 0.232 ± 0.2 kcal/mol |
| SAGGSAGGSAGGSMEVVETEEPGPGEERIRIVRFKEKTIVTRTPPDGVPTSEELPISELSAGGSAGGSAGGS [r10_1075_JUSTAS] | -0.247 ± 0.2 kcal/mol | 0.0261 ± 0.2 kcal/mol |
| SAGGSAGGSAGGSMKKVEVEIPYSFEGPPTFNPEEIEKKLKEEGINAKIKTKYIPKSKEKSAGGSAGGSAGG [r7_355_JUSTAS] | -0.321 ± 0.7 kcal/mol | -0.145 ± 0.39 kcal/mol |
| SAGGSAGGSAGGSMSTLSLTIPVGGEPVSVTVQQLYDPTKNTTTTLLPPEAAAVIARAAGSAGGSAGGSAGG [r11_91_JUSTAS] | < -1 kcal/mol | -0.449 ± 0.19 kcal/mol |
| SAGGSAGGSAGGSPFEGPRPVVVKPVSPEILAKTPPEEVKKRLKEELPESVTIVETNPLPSAGGSAGGSAGG [r7_487_JUSTAS] | < -1 kcal/mol | 0.12 ± 0.1 kcal/mol |
| SAGGSAGGSAGGSPSTRTPITVEVKSPTALSRFTYDTGLSPAEIAAPFAAGGYTVTFVSSAGGSAGGSAGGS [r10_540_JUSTAS] | -0.538 ± 0.16 kcal/mol | -0.127 ± 0.22 kcal/mol |

| Sequence | folding stability dG unfold [1] | folding stability dG unfold [2] |
| --- | --- | --- |
| SAGGSAGGSAGGSSRVLKGKDTTVVLYPDSVTFYPGSTGTPVVKSISDPEVVEEIKKLLSAGGSAGGSAGGS [r4_353_JUSTAS] | < -1 kcal/mol | -0.192 ± 0.33 kcal/mol |
| SAGGSAGGSAGGSSSSSGTTLVPVTITTETFLNDDTPVTTVTTVLKTLAPDETLADLLASAGGSAGGSAGGS [r4_283_JUSTAS] | -0.519 ± 0.26 kcal/mol | -0.292 ± 0.11 kcal/mol |
| SAGGSAGGSAGGSSVSVSFDPATGTRTVTYTTLDPSNGKILSSTTSTTAVALAATPAAASAGGSAGGSAGGS [r10_842_JUSTAS] | -0.288 ± 0.17 kcal/mol | 0.661 ± 0.058 kcal/mol |
| SAGGSAGGSAGGTIQWDPANGRIKITNPNGKKKTIPIPPDDPEEFLKELKDNGIDRIEPVSAGGSAGGSAGG [r7_139_TrROS] | 0.38 ± 0.25 kcal/mol | 0.964 ± 0.075 kcal/mol |
| SAGGSAGGSAGGTKELAEALRDAGYEVEYDKATNKIEVRPKPKPKPVVKTVTFVPKEDLSAGGSAGGSAGGS [r10_1173_TrROS_Hall] | -0.51 ± 0.36 kcal/mol | -0.433 ± 0.11 kcal/mol |
| SAGGSAGGSAGGTLIKTSDDTIVIPIGDPEEAEKAAEEIKAKLGDVDLKVEILSPEELRGSAGGSAGGSAGG [r7_645_JUSTAS] | 0.13 ± 0.14 kcal/mol | 0.487 ± 0.032 kcal/mol |
| SAGGSAGGSAGGTTLLFPDKIIRTLPLPPGAVFDVPPGLTLEGVEEDPSTGTLTVTVKGLSAGGSAGGSAGG [r11_942_JUSTAS] | -0.211 ± 0.24 kcal/mol | 0.0814 ± 0.14 kcal/mol |
| SAGGSAGGSAGGTVVPEKEARELARKVAEKGEPIEVEIGDPGPKKPRTVLITPEDLEERSAGGSAGGSAGGS [r10_779_JUSTAS] | < -1 kcal/mol | -0.219 ± 0.18 kcal/mol |
| SAGGSAGGSAGGWTLEELKNAPPGEPVTITIPMYSPNGDKKQPMRIRITPDDGEIEIEMSAGGSAGGSAGGS [r10_394_TrROS] | 0.406 ± 0.15 kcal/mol | 0.908 ± 0.13 kcal/mol |
| SAGGSAGGSAGIIEFPFPLNEAKKLAENLPPGFRPVNVEPDPDNDRIWVIIQVVPPKKGKSAGGSAGGSAGG [r17_98_TrROS] | < -1 kcal/mol | -0.992 ± 0.73 kcal/mol |
| SAGGSAGGSAGKEPILAIPNPEFPDVVIIKTKDGVRAVPVEELKELDIDAVMSLEEALASSAGGSAGGSAGG [r17_88_TrMRF] | 0.174 ± 0.2 kcal/mol | 0.731 ± 0.067 kcal/mol |
| SAGGSAGGSAGKKKIHVHQYPDGNYHIRVPNGKSYHFPPEDADELVEELGIDEVEIHPMDSAGGSAGGSAGG [r11_312_TrROS] | -0.407 ± 0.16 kcal/mol | 0.0552 ± 0.089 kcal/mol |
| SAGGSAGGSAGKKKITIDYEEIREKFGLPPDDIDNMSMSRVMNYAKPLAKEGKIDEIEISSAGGSAGGSAGG [r11_80_TrROS] | < -1 kcal/mol | -0.291 ± 0.53 kcal/mol |
| SAGGSAGGSAGKLRFRRVGLVLELNEDGSLSLSPIEEEVEVEVPEPLPVGLGLGGKPYLLSAGGSAGGSAGG [r17_418_TrMRF] | -0.0408 ± 0.22 kcal/mol | 0.325 ± 0.27 kcal/mol |
| SAGGSAGGSAGKNNKVKLTYTIEVEGEGKPKKIKIEYYLSPNGIPEPPELIKSKAGGLAKSAGGSAGGSAGG [r17_373_TrMRF] | -0.191 ± 0.21 kcal/mol | 0.306 ± 0.13 kcal/mol |
| SAGGSAGGSAGMEPLKEIEVPFPGGWSIEIEVYPNGIKIEPNPNFDNPQMKKRILDALNPSAGGSAGGSAGG [r11_372_TrROS] | -0.445 ± 0.42 kcal/mol | -0.0677 ± 0.26 kcal/mol |
| SAGGSAGGSAGMESKVVTLDVPLAPDETAEAVAARLRAADPAAVLLGYDPAAGRVTVRVASAGGSAGGSAGG [r11_465_JUSTAS] | -0.332 ± 0.087 kcal/mol | 0.411 ± 0.078 kcal/mol |
| SAGGSAGGSAGMIQIDQDPNNGNYKVKIRNPDGKPREFNVDSPDELEDAADKNGFPAEPISAGGSAGGSAGG [r11_1049_TrROS] | -0.512 ± 0.41 kcal/mol | -0.0704 ± 0.14 kcal/mol |
| SAGGSAGGSAGMIVVPPEDLENLPPWYSVEPGEDSVTVWDESNPVVVPRDEPALVSPPERSAGGSAGGSAGG [r17_91_JUSTAS] | -0.136 ± 0.22 kcal/mol | 0.72 ± 0.079 kcal/mol |
| SAGGSAGGSAGMKTKATFVIDNEEYDATIDPGTPKNSTATVTKPDSTTTITVTNIKLFPESAGGSAGGSAGG [r11_247_JUSTAS] | 0.346 ± 0.11 kcal/mol | 0.897 ± 0.062 kcal/mol |
| SAGGSAGGSAGMNIVVSSEEEAEKAIKELAKKLGKPNNLKNPKVTVIPLEPTPTGGLKKKSAGGSAGGSAGG [r17_237_JUSTAS] | -0.301 ± 0.16 kcal/mol | 0.226 ± 0.077 kcal/mol |
| SAGGSAGGSAGMRITVEPDRVVVHPPGGEEIVMPAPEWGEEEVLALAEEHPDVEVEPVPPSAGGSAGGSAGG [r17_545_JUSTAS] | < -1 kcal/mol | -1.01 ± 0.37 kcal/mol |
| SAGGSAGGSAGMVIELPVPGTMSPEEARARAEEVAEELARRTGRPVEVREVRLVTPEELASAGGSAGGSAGG [r17_68_JUSTAS] | -0.733 ± 0.4 kcal/mol | -0.364 ± 0.086 kcal/mol |
